Laboratory results published in the domain aggregation screens of Martell et al. (2025).

experiment: soluble fraction after stress (log2 fold change); higher = more stays soluble; pooled small domains, quantitative proteomics; conditions: stress: 50 degC
How it was run: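 Each library was heated to 50°C as a stress step. The libraries, made up of small protein domains, were pooled and analysed at high throughput by quantitative proteomics. The reported value is the base-two logarithm of the fold change in each protein's soluble amount after stress, taken as a measure of aggregation propensity. The higher the value, the more protein stays in solution.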

| Sequence | soluble fraction (log2) |
| --- | --- |
| HMSDTLPRLLWNFQMAKRLDEMNGAEKRRYQLVLIHPQASEKERDYASSFAHQARMLGIEVAIRDS | -0.345 |
| HMDSNFNYELVGFRLDDMGLNSSVIVKRNNQEFVIQKGDLLENKYLLNSVTKKNINFSYLGKNYQI | -0.789 |
| HMFGDQMQSYLSRLSQIDVDIIALKYGDNFTYREIGLILEMSEDSVRQRAVRARKKLETMIQKG | -3.1 |
| HMTSRFITTEEGTLYVDADGRKVSGWQTIDGSRYYFDEHGIRQSGTIEVNGETYVLDEDGVL | 0.0747 |
| HMGARWPIQDRPLTATEAAAVRRMYAGGLPHGRSKNSVITEVWGDLSNKPKRLDWLNQALEGGA | 0.184 |
| HMSVSEAELAEKYHADDLEALKSGKLHEFQENLIDRNGKKYTVQTMKDILTLSDGTRLLLGIGLD | 0.174 |
| HMEDQITNQQFTMTKQSILDLLVKKSYPPYELANELHLKKEEVLPIIRFLIAENEIHFKDGMLHLPH | -0.167 |
| HMAIDPLLDKGYEQYDKGEFTEAVKSFNRAIEIDPKNAEAHFLRAMTYQGLALSKLAVADLEKAIV | 0.136 |
| HMSGSPREQAESEYRKAIAAVNQGRVSEATESLRAALRLDAFQVAARQLLVKLLLEAKNQDEAIQVLR | -0.463 |
| HMLAQDVIVKQDGGTILSKVLEIGTQEIAYKKWNSQDGPVYKIAKDQVLSVNYQNGEVDRFA | 0.00732 |
| HMNLNIGNNIKNIRKSKNMTQTDFAELMGLSRSYIGDLENNRSNPSIKTLEAIARALDVPIVALIN | -0.399 |
| HMKKVSVKPILELRAAGISMRKIETLMHVSRHTISAIYKAADAYSISWDNVKDFDEDKIYEMLFPPTP | -1.94 |
| HMKSEMYIDLSNALLKMSERDKELLTYRYTMEMSSKEISQITGIKESNVNSYIRRAREKLLKIFNAMNK | -3.04 |
| HMPPNRDDEHLQALRDYYAANRRIPSLQRVASLLGFSSRSAAVKLMGRLADEGFIERTADDDAWITGKRFF | -1.19 |
| HMSEQLVGTVGHITVGTARTASPAEAKFLDAFEQPHYLLVEPIEPKDIFQQGDKVVLVKKQHHSWLATRYI | -0.267 |
| HMTNISDYILEEYYKNVYPNDLNTKRIVIPNKYEEYAGKYTYITIARMVTYEHDAKKALKVLHQQAT | -0.287 |
| HMSKNIRQQFLDVLPKTFDRNQYLETAKKLSINAKTAEGYIKKFVEANLLDHPKHNHYINLKKVEEVETK | 0.229 |
| HMSDGTVYGSDGVIKVNLPQSGMLRIYATDGTTLVNRWQAAGIDTISMPRGLYIVRFDNQVWKVVV | -0.74 |
| HMTDDPGLSRAENRELQTLLLDRGHDIGQPDGLIGAKTRAAIRAEQSRLNMPVNGRGGQKLLRALRL | 0.372 |
| HMAPPIQQQVESLMNSFAKIGVTVPMLESRLQHAMSAVTANELVMLRKIGASIRDGFATVAEQFPA | 0.0539 |
| HMREGRERRLSQLLSYLRTHHILTRSEYVKLTGLSPTAASSELKTFVTAGHIVRKGIASHSTYRLPH | -1.71 |
| HMSTSFQVQVSVLDLRIRKEPTVKGQEVGKISKGIHTITETRSADGYTWGKLESGQGWIALEFTTKLD | -0.194 |
| HMNFSRQREIIYEQVRNFPVHPTAEEVYRALKNDNPNLSLGTVYRNLNQLSEAGMLLKIPIADGSDRFDGR | -0.492 |
| HMGGELLSLRRIGTLTGISYPTLLRYVARYGEQIPQTGTGRSRRFPPAAVPVFQELRATRGRAPRATA | -0.063 |
| HMPDYYAILEVERTADAKTIKAAYRKLALAYHPDRNPGDQAAEERFKQINEAYAVLSDPEKRARYDRYGSV | -0.31 |
| HMAEWLLVQLTNGNWFYGEVIEKTDATIVLNTDILGKVSIQKLDIRRSISGPLTAAKRQEIEDSERAKD | -0.0179 |
| HMQANLPFSELLADVDRGLISDVTIKGDQVSGHYTDGRTFNTFIPPEADLVRRLTEKNVRIAAVPD | -0.111 |
| HMAAPELLTVRERQVAALISDGLSNQQIAHRLHLEVTTVKAHIGSIFNRLDMNNRVQIAIWAHDRQLVFS | -0.266 |

| Sequence | soluble fraction (log2) |
| --- | --- |
| HMAEKRTAIITTARADIRQKPEATAPLAFEAVKDVVLELTDKPADGWVRVKHRDGSTGYIRINQI | 0.0711 |
| HMMLVKKMLNGIMMKEITIKELADQYDVSTRTIQLKIKKLGYEWDSKESIYRYVGKESEPLDVDFSTLI | -3.29 |
| HMRGPPQVLVDVELEDGRVGQIGVRNGDDATELAETFVRAFRLEQSFVGRLANVIQGKIRELLHSQ | -0.889 |
| HMSEYIFGKNVVKEAFNNPSRIEEIYVLDKNMEFVSLAKKYHIKYTVITSSEMNKMVSGNHQGVVALVK | -0.277 |
| HMGSLPPPKDGTTIYVVKPGDSLWRISGKFFGNPLFWPRLWEINPNIDNPNKIYPGDVISLKP | 0.00421 |
| HMKSATGKIPDFISDLPVDEFVRELIVTNAFQPLNKFKEVQNHIGSALKIYVDELTEKRANGTVHILYSHK | 0.077 |
| HMADTSLDHLGVLVRHASDVDAWAEFFENRGVTLASQPRTHRDGARSFYVDDPDGNRVQVIYHPPI | -0.498 |
| HMPLDKDTTLDEIYRRFNMEHPADYKGHSLSMGDIVVFRQDGKQTAYYVDEGADYRQVPEFFVK | 0.0346 |
| HMKEFSFNGGKVIMNYEADRIQIKHDSRPNQEVITLMKRNGFKWSPTNQAWQRQITGNAIYVTKNLLKS | -1.35 |
| HMLALVREQIERNVSNPTDEDIRKIRHDVMEVITRAGADAATVDIAIEIDSQKNILRAIATGATEL | -0.0114 |
| HMTGQLTEEELKQRQERAMSNPEIQGILSDPVMRQVLQDMSTDPKAAAEHQRNPTIMAKIQKLINAGIVQV | 0.11 |
| HMLQKVELSDNEKFIFDSLQKEQKMALLRLKELVNLSNKAWDVSVKNLTKQGLVKVTKIDEELLIEI | -0.949 |
| HMTELNNTQRAAVLLLALDEDSAAEVFKHLSAREVQEVSQEMAKLGNISHDQMRQVLDDFYDESEQF | -0.0259 |
| HMEILPAYRDIKKEALLGNINAEFKYVNLLLEHNYIEQAFNIIEDMKTRVDDNPEFEELKSRVADAYLMY | -1.38 |
| HMENLFPDYTMQDYRIVRSELSSKFKVQTVPVTTATATENKIVRQEPEAGSRITEGMTVILYYSIGPE | -0.0582 |
| HMDQESFGYFHVKYADVKQVADLVQKLNIPAVTWADERTRRLVALGSPATLQRISQVLNMVDL | -0.721 |
| HMDWVAYGAELRRRRLLAGWSVAELSRRTNLSTSIIYQVEQARTRLRPSQLTLAKLAAALGMP | -3.15 |
| HMRFEWFDTLTDREKEIFGLIATGFDNQQIADRLQLAEQTVRNNISTIYSKLEVKDRFEIIRLANTI | -0.706 |
| HMAMDYYAIGQRIRKFRKAHDWSQEELAEKVEISTTHMSHIETGSTKLSLPVLVSLANVLDVRTDDLLF | -3.88 |
| HMSTKLLEVNIFDDSKWVNKTIMDSDIPEDILIVMIKRGDEVIVPKGSTIINKGDILVLSANNFDNLLN | -1.63 |
| HMKKYIEIYNYYKQLIESEQLKSGDKMPSVRKATKIFNVSKTTVQNAYFDLQADGYIIAAPKSGYYVTEM | -0.295 |
| HMGYDLLFQQALGFHEQGRLNEAENIYRQILETAPNNPDILNLLGLIAQQKGLHAQAVDYFYQAIRL | -1.41 |
| HMHSLLDDIPNVGEKRKRILLTHFQSLEEIKAATVEELERLPQINRKAAESIYTFFHSQPIR | -0.0679 |
| HMFFAGLSPEAARTLDSLPLHSWSSVEQIARQAGLNIETVRKELGLLELSGIALSRQGRFRRA | -0.549 |
| HMSKHAIQNELEKIEGIGKQTADSLLKEFKSVKKLRTLPLSEIEKVIGKSKATIVFEALHKDK | 0.133 |
| HMSPFYILDEVEAALDDTNLGRLLEIYEELRENSQLLVITHQKRTMEVGDALYGVTMRGDGVSAVISQRLR | 0.303 |
| HMEDINAVLAENLRRLRESRRLSLDAVARLTGVSKSMLGQIERGEVNPTVSTMWKIAGGLKVNFTALFRRE | -1.47 |
